Data published in publication doi:10.1101/2025.05.19.654868.

What was measured:
[1] = biological target: S16L/R18S/N21K (LSK) crosslinked (disulfide-stabilised) HIV-1 CA hexamer (HIV-1); assay: crystal structure; crosslinked CA hexamer 12 mg/ml mixed with 1-5 mM IP6; sitting-drop vapour diffusion, 17 °C, MORPHEUS I screen
[2] = biological target: S16N/R18S/N21K (NSK) crosslinked (disulfide-stabilised) HIV-1 CA hexamer (HIV-1); assay: as above

Row | Substance | stoichiometry N [1] | stoichiometry N [2]
1 | S16L/R18S/N21K (LSK) crosslinked (disulfide-stabilised) HIV-1 CA hexamer (complex) | 6 | 
2 | S16N/R18S/N21K (NSK) crosslinked (disulfide-stabilised) HIV-1 CA hexamer (complex) |  | 6
